Measurements as given in the nanobody polyreactivity screen of Harvey et al. (2022).

Assay: yeast display, Sf9 membrane polyspecificity reagent, FACS + sequencing; frameworks hold sequencing errors
Outline: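 A synthetic nanobody library was expressed on Saccharomyces cerevisiae BJ5465 by galactose induction for 36–48 hours. The library was stained for 1 hour at 4 °C with 10% biotinylated, detergent-solubilized Sf9 membrane reagent and enriched with streptavidin microbeads before FACS. Low and high (top ~1%) gates were set on anti-HA fluorescence for expression and streptavidin fluorescence for reagent binding, and each polyreactivity label reflects the gate of origin.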

## QVQLVESGGGLVQAGGSLRLSCAASGSIFPYYTMGWYRQAPGKERELVAAISGSGTSTYYADSVKGRFTISRDNAKNTVYLQMISLKPEDTAVYYCAKRFRYGYVNYYYWGQGTQVTVSS
  polyreactivity (PSR sort gate): low polyreactivity

## QVQLVESGGGLVQAGGSLRLSCAASGSIIVNYDMGWYRQAPGKERELVAAISSGGSTKYADSVKGRFTISRDNAKNTVYLQMNSLKPEDTAVYYCAAGKHVTFSYEYRMDYWGQGTQVTVSS
  polyreactivity (PSR sort gate): low polyreactivity

## QVQLVESGGGLVQAGGSLRLSCAASGRIIFIYAMGWYRQPPGKERELVAGINRTGGSTYYADSVKGRFTISRDNAKNTVYLQMNSLKPEDTAVYYCAAVSYYASDYRYDYWGQGTQVTVSS
  polyreactivity (PSR sort gate): low polyreactivity

## QVQLVETGGGLVQAGGSLRLSCAASGSIADVYAMGWYRQAPGKERELVAAITSGASTYYADSVKGRFTISRDNAKNTVYLQMNSLKPEDTAVYYCTKSAAITGNGHMDYWGQGTQVTVSS
  polyreactivity (PSR sort gate): low polyreactivity

## QVHLVESGGGLVQAGGSLRLSCAASGRISFNAMGWYRQAHAKERELVAAISRRGGSTYYADSVKGRFTISRDNAKNTVSLQMNSLKPEDTAVYYCAPDIIRPVTVDYWGQGTQVTVSS
  polyreactivity (PSR sort gate): high polyreactivity

## QVQLVESGGRLVQAGGSLRLSCAASGYIFERNAMGWYRPAPGKERELVAAITDDGDDTYYADSVKGRFTISRDNEKNTVYLQLYSLKPEDTAVYYCAKDLYYGDYYYWGQGTQVTVSS
  polyreactivity (PSR sort gate): low polyreactivity

## QVQLVESGGGLLQAGGSLRLSCAASGLIFYDNMGWYRQAPGKERELVAAISSTGGSTSYADSVKGRFTISRDNAKNTVYLLMNSLKPEDTAVYYCAADSYPAYLGFVGFDYWGQGTQLTVSS
  polyreactivity (PSR sort gate): low polyreactivity

## QVQLVESGGGLVQAGGSLRLSCAASGSTFRFYAMGWYRQAPGKERELVAAISKSGGITYYADSVKGRFTISRDNAKNTVYLQMNSLKPEDTAVYSCATVGLLSNFYARFNYWGQGTQVTVSS
  polyreactivity (PSR sort gate): high polyreactivity

## QVQLVESGGGLVQAGGSLRLSCAASGSIFVRNAMGWYRQAPGKERELVAAITATGGRTYYADSVKGRFTISRDNAKNTVYLQMNSLKPEDTAVYYCAAYYPRSGYDYWGQGTQVTVSS
  polyreactivity (PSR sort gate): high polyreactivity

## QVQLVESGGGLVQAGGSLRLSCAASGSTFVDYAMGWYRQAPGKERELVAGITSGGSTNYADSVKGRFTISRDNAKNTVYLQMNSLKPEDTAVYYCNADPGQDTPGGISDEWYSVWLEYDYWGQGTQVTVSS
  polyreactivity (PSR sort gate): low polyreactivity

## QVQLVESGGGLVQAGGSLRLSCAASGIIFPFYAMGWYRQAPGKERELVAAITSGDDTYYADSVKGRFTISRDNAKNTVYLQMNSLKPEVTAVYYCNKRLYIAGYWPQLYYIMDYWGQGTQVTVSS
  polyreactivity (PSR sort gate): low polyreactivity

## QVQLVESGGGLVQAGGSLRLSCAPSGSIFDCNAMGWYRQAPGKERELVAAISVSGGSTYYADSVKGRFTISRDNAKNTVYLQMNSLKPEDKAVYYCAAETWTDGWYYDYWGQGTQVTVSS
  polyreactivity (PSR sort gate): high polyreactivity

## QVQLVESGGRLVQAGGSLRLICAASGSTFYPYAMGWYRQAPGKERELSTDADSVKGRFTISRDNAKNSVYLQMNSLKPEDTAVYYCAALHWRWYDYWGQGTQVTVSS
  polyreactivity (PSR sort gate): low polyreactivity

## QVQLVESGGGLVQAGGSLLLSCAASGRTFSRNAMGWYRQAPGKERELVASIRSGGTTNYADSVKGRFTISRDNAKNTVYLQMNSLKPEVTAVYYCNAGDTFLDPCSQYLFDYWGQGTLVTVSS
  polyreactivity (PSR sort gate): low polyreactivity

## QVQLVESGGGLVQAGGSLRLSCAASGFTFDSNAMGWYIQAPGKERELVAAISTGGSTYYADSVKGRFTISRDNAKNTVYLQMNSLKPEDTAVYYCARDPPYPDTWYGYWGQGTQVTVSS
  polyreactivity (PSR sort gate): low polyreactivity

## QVQLVETGGGLVQAGGILRLSCAASGSTFYRNAMGWYRQAPGKERELVAAINSTDSTNYADSVKGRFTISRDNAKNTVYLQMNSLKPEDTAVYFCAAVGVNLATAEYDYWGQGTQVTVSS
  polyreactivity (PSR sort gate): low polyreactivity

## QVQLVESGGGLVQAGGSLRLSCAASGFIFPDNVMGWYRQAPGKERELVAAISRSGGSTYYADSVKGRFTISRDNAKNTVYLQMNSLKPEDTAVYYCAVKFVRYRQGIVLYDYWGQGTQVTVSS
  polyreactivity (PSR sort gate): high polyreactivity

## QVQLEESGGGLVQAGGSLRLTCAGSGSIFDGNSMGWDRQAPGKEMELVASISWSGGTTYYADSVKGRFTISRDNATNTVYLQMNSLIPEDTAVYYCNKAGGYRRYSFWSGDYWAGLDFLGQGTQVTVSS
  polyreactivity (PSR sort gate): low polyreactivity

## QVQLVESGGGLVQAGGSLRLSCAASGGTFSKYAMGWYRQAPGKERELVAAITYSSGSKYYADSVKGRFTISRDNAKNTVYLQMNSLKPEDTADYYCAARSGLYWWRFDYWGQGTQVTVSS
  polyreactivity (PSR sort gate): high polyreactivity

## QVLLVESGGGLVQAGGSLRLSCAPSGSIFDYYTMGWYRQAPGKERELVAAISSDGSTNYADSVKGRFTISRDNAKNTVYLQMNTLKPEDTAVYYCADSTYRFYYYLKRGYWGQGTKVTVSS
  polyreactivity (PSR sort gate): low polyreactivity

## QVQLVESGGGLVQAGGSLRLSCAASGNTLQYYAMGWYRQAPGKERELVAAITTGGSTNYADSVKARFTISRDNAKNTGYLQMNSLKPEDTAVYYCAARGGVSKRISDYWGQGTQVTVSS
  polyreactivity (PSR sort gate): low polyreactivity

## QVQLVESGGGLVQAGGSLRLSCAASGRTFQQNAMGWYRQAPGKERELVAAINSRGGRTYYADSVKGRFTISRDTAKNTVYLQMNSLKPEDTAVYYCAARYYWGQGTQVTVSS
  polyreactivity (PSR sort gate): high polyreactivity

## QVQLVESGGGLVQAGGSLRLSCAASGSTFNTYAMGWYRQAPGKERELVAAITFSVGSTYYADSVKGRFTISRDNAKNTVYLQMNSLKPEDTAVYYCARRGAYTGRYDYWGQGTQVTVSS
  polyreactivity (PSR sort gate): high polyreactivity

## QVQLVESGGGLVQAGGSLRLSCAASGRTFYYYAMGWYRQAPGKERELVASISRRGGSTYYADSVKGRFTISRDNAKNTVYLQMNSLKPEDTAVYYCAASHYHGYSRMDYWGQGTQVTVSS
  polyreactivity (PSR sort gate): high polyreactivity

## QVQLVESGGGLVQAGGSLRLSCAASGRIFDFNAMGWYRQAPGKERELVAAITWSGTSTYYADSVKGRFTISRDNAKNTVYLQMNSLKPEDTAVYYCAVDYSPWWAFSYSDYYYWGQGTQVTVSS
  polyreactivity (PSR sort gate): high polyreactivity

## QVQLVESGGGLVQAGGSLRLSCAASGSTFKRYAMGWYRQAPGKERELVATINSGTSTNYADSVKGRFTISRDNAKNTVYLEMNSLKPEETAVYYCAKSFRRSVGGYGYDYWGQGTQVSVSS
  polyreactivity (PSR sort gate): low polyreactivity

## QVQLVESGGGLVQAGGSLRLSCAASGITLSQNAMGWYRQAPGKERELVAAIDSGGVDTYYADSVKGRFTISRDNAKNTVYLQMNSLKPEDTAVYYCAVDYSYEYEYWGQGTQVTVSS
  polyreactivity (PSR sort gate): low polyreactivity

## QVQLVESGGGLVQAGGSLRLSCAASGSTFVTNDMGWYRQAPGKERELVAAISSGTSTNYADSVKGRFTISRDNAKNTVYLQMNSLKPEDTAVYYCAADSLKRYDYWGQGTQVTVSS
  polyreactivity (PSR sort gate): low polyreactivity

## QVHLVESGGGLVQAGGSLRLSCAASGSIFNVNAMGWYRQAPGKERELVAAISSGGDTYYADSVKGRFTISRDNAKNTVYLQMNCLKPEDTAVYYCAKQSYTLYTLLYDYWGQGTQVTVSS
  polyreactivity (PSR sort gate): low polyreactivity

## QVQLVESGGGLVQAGGSLRLSCAASGFIFYRYAMGWYRQAPGKERELVATISWSGGRTYYADSVKGRFTISRDNAKNTVYLQMNSLKPEDTAVYYCNAVNTHDYGYWGQGTQVTVSS
  polyreactivity (PSR sort gate): low polyreactivity

## QVQLVESGGGLVQAGGSLRLSCAASGITIPVYMGWYRQAPGKERELVASISTIGGTTYYADSVKGRFTISRDNAKNTVYLQMNSLKPEDTAVYYCAADHPWSWYDYWGQGTQVTVSS
  polyreactivity (PSR sort gate): low polyreactivity

## QVQLVESGGGLVQAGGSLRLSCADSGSTFWLYAMGWYRQAPGKERELVASISSRGRSTYYADSVKGRFTISRDNAKNTVYLQMNSLKPEDTAVYYCAAKDIRYDDDYWGQGTQVTVSS
  polyreactivity (PSR sort gate): low polyreactivity

## QVQLVESGGGLVQAGGSLRLSCAASGSTFYLYAMGWYRQAPGKERELVAAISSGGRTYYADSVKGRFTISRDNAKNTVYLQMNRLKPEDTAVYYCAKVYRRRYYWGQGTQVNVSS
  polyreactivity (PSR sort gate): high polyreactivity

## QVQLVESVGGLVQAGGSLRLSCAASGTFKWYAMGWYRQAPGKERELVAVISSSGGTTYYADSVKGRFTISRDNAKNTVYLQMNSLKPEDTAVYYCNKRFRSWTTGSPYDYWGQGTQVTVSS
  polyreactivity (PSR sort gate): high polyreactivity

## QVQLVESGGGLVQAGGSLRLSCAASGSIFKWYTMGWYRQAPGKERELVAAITWGGGSTYYADSVKGRFTISRDNEKNTVYLQMNSLKPEDTAVYYCNREGWHYGPYGYWGQGTLVTVSS
  polyreactivity (PSR sort gate): low polyreactivity

## QVQLVESGGGLVQAGGSLRLSCAASGSTFYTYAMGWYRQAPGKECELVAAISNRGGSTRYADSVKGRFTISRDNAKNTVYLQMNSLKPEDTAVYYCAAQRIRRGWYGYWGPGTQVTVSS
  polyreactivity (PSR sort gate): high polyreactivity

## QVQLVESGGGLVQAGGSLRLSCAASGRIFYTNAMGWYRQAPGKERELVAVISWGGDTTYYADSVKGRFTISRDNATNTVYLQMNSLKPEDTAVYYCNADWGPTYEIYDSWGQGTQVTVSS
  polyreactivity (PSR sort gate): low polyreactivity

## QVQLVDSGGGLVQAGASLRLSCAASGRIITAYYAMGWYRQAPGKERELVASISSSGTSTYADSVKGRFTISRDYAKNTVYLQMKSLKPEDTAVYYCATRKQRTRRYDYGYWGQGTQVTVSS
  polyreactivity (PSR sort gate): low polyreactivity

## QVHLVESGGGLVQAGGSLRLSCAASGITFYRFVLGGYRQAPGKEWELDAAISRTGGYTYYADSVKGRFTLSRDNAKNTVYLQMNSLKPVDTAVYYCAAATSTGIYDYWGQGTQVTGSS
  polyreactivity (PSR sort gate): high polyreactivity

## QVQLVESGGGLVQAGGSLRLSCAASGSIFYFNGLGWSRQSPGKEREFVAAITWGDGSTYYADSVKGRFTISRDNAKNTVYLQMNSLKPADTAVYYCAAVLLIFKYVPRYDYWGQGSQVTVSS
  polyreactivity (PSR sort gate): low polyreactivity

## QVQLVESVGGLVQAGGSLRLSCAASGSIFGYNAMGWYRQAPGKERELVAVINASGASTYYADSVKGRFTISRDNAKNTVYLQMNSLKPEDTAVYYCAKDPFPFPGGDDWGQGTQVTVSS
  polyreactivity (PSR sort gate): low polyreactivity

## QVQLVESGGGLVQAGGSLRLSCAASGSTWIYAMGWYRQAPGKERELVAAISGSGDRTYYADSVKGRFTISRDNAKNTVYLLMNSLQPEDTAVYFCATVYYKSGKYDYWGQGTQVTVSS
  polyreactivity (PSR sort gate): high polyreactivity

## QVQLVESGGGLVQAGGSLRLSCAASGSTFVGNAMGWSRQAPGKERELVAAITSGGSTNYADSVKGRFTISRDNAKNTVYLQMNSLKPEDTAVYYCAKRVSGSPPTGGSLSDSWGQGTQVTVSS
  polyreactivity (PSR sort gate): high polyreactivity
